# Publication PMC4254048
# Molecular target: UB (ubiquitin)
# Test: SEC-MALS
# Details: reference: unphosphorylated PARKIN; sites S65
substance,measurement,value
PARKIN (from UniProt O60260) p-PARKIN,other: mass increase on p-UB addition,same; reference ~7
